The conditions of assay [1]: 0.01% solution of about 1500 kDa HA; model normally produces more than 70% adhesions; cited from earlier work.
The test system of assay [2] is B. fragilis. Put plainly: Rat model of intraabdominal sepsis, abscess formation after B. fragilis challenge. In kind it is in vivo. Conditions: 50 μg dose.
For the next assay, the system named is human T cells. In kind it is cell-based. Conditions: 20 μg/ml, 6 days post-incubation.
For assay [3], the system named is B. fragilis. Put plainly: Protection against abscess formation by recombinant cytokine given intracardially at challenge. In kind it is in vivo, rat. Particulars: 100 pg intracardiac at time of challenge, 10^8 cfu B. fragilis; Experiment A.
Assay [4] relates to B. fragilis. Put plainly: IL-10-mediated protection against abscess formation. It is filed as in vivo, rat. The procedure:
In order to examine further the role of IL-10 in the abscess model, male Wistar rats (150 g) were treated with recombinant IL-10, anti-IL-10, or isotype antibody control beginning on the day of challenge with 1×10^8 cfu B. fragilils. Further comparison was made using a group treated with Streptococcus pneumoniae type I CP alone or together with anti-IL-10. Animals were sacrificed and examined six days after challenge.

Setting [5] is: 0.2 μg i.p. at 0, 24, 48 and 72 hours relative to challenge.

As for hyaluronic acid [HA], the “prevention of severe intra-abdominal adhesions (in words)” value in assay [1] is given as “effectively prevents all severe intra-abdominal adhesions”.
Take poly-L-lysine: in the assay on B. fragilis [2], the “Protection against abscess formation vs saline (in words)” value is given as “did not protect against abscess formation”. In addition, in the assay with human T cells, the “T cell activation (in words)” value is listed as “did not stimulate T cell proliferation”.

B1: IL-4: interleukin 4 given at 100 pg as comparison (protein, UniProt P05112 25-153, looked up)
Interleukin-4: HKCDITLQEIIKTLNSLTEQKTLCTELTVTDIFAASKNTTEKETFCRAATVLRQFYSHHEKDTRCLGATAQQFHRHKQLIRFLKRLDRNLWGLAGLNSCPVKEANQSTLENFLERLKTIMREKYSKCSS
For the molecule B1, in the assay with B. fragilis [3], the “Abscess formation (%)” value came out at 75%.

B2: recombinant IL-10: recombinant interleukin-10 (protein, UniProt P22301 19-178, looked up)
Interleukin-10: SPGQGTQSENSCTHFPGNLPNMLRDLRDAFSRVKTFFQMKDQLDNLLLKESLLEDFKGYLGCQALSEMIQFYLEEVMPQAENQDPDIKAHVNSLGENLKTLRLRLRRCHRFLPCENKSKAVEQVKNAFNKLQEKGIYKAMSEFDIFINYIEAYMTMKIRN
Regarding B2, the “Protection against abscess formation vs isotype control antibody (in words)” value in the assay with B. fragilis [4] (0.2 μg i.p.) is “protected from abscess formation”. Moreover, in the assay with B. fragilis [4] (setting [5]), the “Abscess formation (%)” value was found to be 13% and the “No. animals with abscess/total” value was 2/16.
